Measurements published in patent US20240092919A1 (Ablynx, published 2024).
Where two headings read alike, the source gives them in different places. Each block holds one binder with its values, some of them ahead of it.

Experiments:
[1] = biological target: T1, Cynomolgus T cell receptor on cynomolgus primary T cells (cynomolgus monkey); experiment: cell-based or functional assay
[2] = biological target: T2, Human T cell receptor on human primary T cells (human, UniProt P01848 1-140; P01850 1-176); experiment: cell-based or functional assay
T2 TCR alpha (looked up): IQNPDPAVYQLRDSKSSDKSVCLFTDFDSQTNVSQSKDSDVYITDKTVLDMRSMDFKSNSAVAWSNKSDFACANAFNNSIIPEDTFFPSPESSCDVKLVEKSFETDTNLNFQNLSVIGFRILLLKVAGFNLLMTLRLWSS
T2 TCR beta (looked up): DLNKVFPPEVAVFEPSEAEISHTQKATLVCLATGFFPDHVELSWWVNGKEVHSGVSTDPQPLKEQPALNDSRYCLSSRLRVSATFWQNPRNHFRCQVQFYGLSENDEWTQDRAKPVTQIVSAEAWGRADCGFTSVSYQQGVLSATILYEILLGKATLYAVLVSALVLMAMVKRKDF

[3] = biological target: T1, Cynomolgus T cell receptor on …; experiment: cell-based or functional assay; remark: listed apart in the source
[4] = biological target: T2, Human T cell receptor on human primary …; experiment: cell-based or functional assay
[5] = biological target: T1, Cynomolgus T cell receptor on …; experiment: cell-based or functional assay; remark: listed apart in the source
[6] = biological target: T2, Human T cell receptor on human primary …; experiment: cell-based or functional assay
[7] = biological target: T1, Cynomolgus T cell receptor on …; experiment: cell-based or functional assay; remark: listed apart in the source
[8] = biological target: T2, Human T cell receptor on human primary …; experiment: cell-based or functional assay
[9] = biological target: T3, Cynomolgus TCR(AEA41865/AEA41866)-zipper protein (cynomolgus monkey); experiment: SPR, ProteOn XPR36, 25 C, immobilised TCR-zipper
T3 construct: also called cyTCR-zipper protein; cynoTCR zipper
Text: (§1) HuTCR-zipper or cyTCR-zipper protein was immobilized on a GLC sensor chip (between 100-200 RU) via amine coupling chemistry, using EDC/NHS for activation of the carboxyl groups on the chip surface (running buffer: HBS-EP+, pH7.4). […] Processed sensorgrams were fitted with the Langmuir model (1:1 interaction) using ProteOn Manager 3.1.0 (Version 3.1.0.6) software.
T3 TCR alpha: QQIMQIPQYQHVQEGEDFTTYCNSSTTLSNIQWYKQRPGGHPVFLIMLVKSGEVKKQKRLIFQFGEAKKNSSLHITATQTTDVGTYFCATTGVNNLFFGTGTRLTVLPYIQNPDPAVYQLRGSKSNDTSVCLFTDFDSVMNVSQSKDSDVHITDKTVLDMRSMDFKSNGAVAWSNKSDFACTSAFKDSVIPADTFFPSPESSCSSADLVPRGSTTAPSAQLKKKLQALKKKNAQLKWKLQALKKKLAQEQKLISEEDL
T3 TCR beta: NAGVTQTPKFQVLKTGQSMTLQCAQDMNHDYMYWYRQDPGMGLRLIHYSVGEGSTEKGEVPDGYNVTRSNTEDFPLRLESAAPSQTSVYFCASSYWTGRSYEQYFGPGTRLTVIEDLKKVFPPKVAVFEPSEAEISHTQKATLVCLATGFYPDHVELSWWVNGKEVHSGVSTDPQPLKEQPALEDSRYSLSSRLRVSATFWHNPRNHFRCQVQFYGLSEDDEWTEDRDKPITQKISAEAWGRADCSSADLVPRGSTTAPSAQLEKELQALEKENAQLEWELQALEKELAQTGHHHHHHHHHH

[10] = biological target: T4, human T cell receptor on human primary T cells (human, UniProt P01848 1-140; P01850 1-176); experiment: flow cytometry, human primary T cells
T4 construct: whole, on cells
Experimental: Dose-dependent binding of the purified monovalent ISVD variants to CHO-K1 huTCR(2XN9)/huCD3 overexpressing cells or human primary T cells was evaluated by flow cytometry. […] Next, cells were washed 3 times with FACS buffer and incubated with 1 μg/ml THE™ His Tag Antibody, mAb, Mouse (Genscript, A00186) and washed again. […] Subsequently, cells were resuspended in FACS buffer supplemented with 5 nM TO-PRO®-3 Iodide to distinguish live from dead cells, which are removed during the gating procedure. Cells were analyzed using a FACS Array flow cytometer (BD Biosciences) and Flowing Software. First a P1 population which represented more than 80% of the total cell population was selected based on FSC-SSC distribution. In this gate, 10000 cells were counted during acquisition. From this population the TO-PRO®-3+ cells (dead cells) were excluded and the mean fluorescence intensity (MFI) PE value was calculated.
T4 TCR alpha (looked up): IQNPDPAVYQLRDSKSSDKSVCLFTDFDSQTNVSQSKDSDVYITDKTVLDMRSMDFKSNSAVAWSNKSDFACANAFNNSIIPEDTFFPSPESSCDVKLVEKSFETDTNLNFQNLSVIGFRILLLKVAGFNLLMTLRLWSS
T4 TCR beta (looked up): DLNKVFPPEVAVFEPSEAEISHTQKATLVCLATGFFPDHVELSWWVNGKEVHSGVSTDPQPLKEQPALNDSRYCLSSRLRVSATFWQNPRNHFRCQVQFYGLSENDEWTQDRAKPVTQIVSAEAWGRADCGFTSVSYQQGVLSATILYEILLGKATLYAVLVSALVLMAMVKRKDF

[11] = biological target: T2, Human T cell receptor on human primary …; experiment: flow cytometry competition with Flag3-His6-tagged anti-TCR ISVD ligand, human primary T cells
Experimental: (§2) Subsequently, cells were resuspended in FACS buffer supplemented with 1 μg/ml Propidium Iodide (PI, Sigma, P4170) to distinguish live from dead cells. Cells were analyzed using a FACS Array flow cytometer (BD Biosciences) using Flowing Software. First a P1 population which represented more than 80% of the total cell population was selected based on FSC-SSC distribution. In this gate, 10000 cells were counted during acquisition. From this population the Propidium iodide or TO-PRO©-3 Iodide positive cells (dead cells) were excluded and the median or Mean PE value was calculated.

[12] = biological target: T5, Cynomolgus T cell receptor on the HSC-F cynomolgus T cell line (cynomolgus monkey); experiment: flow cytometry competition with Flag3-His6-tagged anti-TCR ISVD ligand, HSC-F cells
T5 construct: whole, on cells; also called HSC-F cells; HSC-F cyno T cell line (NIBIO JCRB1164)
Experimental: as §2

[13] = biological target: T3, Cynomolgus …; experiment: higher koff divided by lower koff, humanTCR zipper vs cynoTCR zipper (SPR)
[14] = biological target: T3, Cynomolgus …; experiment: SPR, ProteOn XPR36, 25 C, immobilised TCR-zipper
Text: as §1

[15] = biological target: T2, Human T cell receptor on human primary …; experiment: flow cytometry, human primary T cells
Experimental: (§3) The ISVD variants were characterized for binding to CHO-K1 huTCR(2XN9)/huCD3 or to human and cynomolgus primary T cells. […] Next, cells were washed 3 times with FACS buffer and incubated with 1 μg/ml ANTI-FLAG® M2 Ab (Sigma, F1804) and washed again. […] Subsequently, cells were resuspended in FACS buffer supplemented with 5 nM TO-PRO®-3 Iodide to distinguish live from dead cells, which are removed during the gating procedure. Cells were analyzed using a FACS Array flow cytometer (BD Biosciences) and Flowing Software. First a P1 population which represented more than 80% of the total cell population was selected based on FSC-SSC distribution. In this gate, 10000 cells were counted during acquisition. From this population the TO-PRO®-3+cells (dead cells) were excluded and the mean fluorescence intensity (MFI) PE value was calculated.

[16] = biological target: T2, Human T cell receptor on human primary …; experiment: flow cytometry, human primary T cells
Experimental: as §3

[17] = biological target: T3, Cynomolgus …; experiment: SPR off-rate, ProteOn XPR36, immobilised TCR-zipper
Wherever % Lysis, T cell mediated MOLM-13 cell killing, cynomolgus primary T cells, E:T 10:1 is given: test concentration or dose not given here.
Wherever % Lysis, T cell mediated MOLM-13 cell killing, human primary T cells, E:T 10:1 is given: test concentration or dose not given here.

B1: T017000633 (bispecific antibody)
chain: DVQLVESGGGVVQPGGSLRLSCVASGYVHKINFYGWYRQAPGKEREKVAHISIGDQTDYADSAKGRFTISRDESKNTVYLQMNSLRPEDTALYYCRALSRIWPYDYWGQGTLVTVSSGGGGSGGGGSGGGGSGGGGSGGGGSGGGGSGGGGSEVQLVESGGGLVQAGGSLRLSCAASGITSKINDMGWYRQTPGNYREWVASITATGTTNYRDSVKGRFTISRDNAKSTVYLQMNSLKPEDTTVYYCNTFPPISNFWGQGTLVTVSSA
- IC50 (M), xCELLigence CHO Flp-In huCD123 cell killing, Cynomolgus T cell mediated killing [1]: 5.1e-12 M
- IC50 (M), xCELLigence CHO Flp-In huCD123 cell killing, Human T cell mediated killing [2]: 9.1e-12 M
- % Lysis, T cell mediated MOLM-13 cell killing, cynomolgus primary T cells, E:T 10:1 [3]: 35%
- EC50 (M), T cell mediated MOLM-13 cell killing, cynomolgus primary T cells, E:T 10:1 [3]: 5.2e-11 M
- % Lysis, T cell mediated MOLM-13 cell killing, human primary T cells, E:T 10:1 [4]: 31%
- EC50 (M), T cell mediated MOLM-13 cell killing, human primary T cells, E:T 10:1 [4]: 1.2e-10 M
- % lysis, KG-1a, Cynomolgus T cell mediated killing [5]: 64%
- EC50 (M), KG-1a, Cynomolgus T cell mediated killing [5]: 3.4e-10 M
- % lysis, KG-1a, Human T cell mediated killing [6]: 56%
- EC50 (M), KG-1a, Human T cell mediated killing [6]: 6.8e-10 M
- % lysis, MOLM-13, Cynomolgus T cell mediated killing [7]: 44%
- % lysis, MOLM-13, Human T cell mediated killing [8]: 26%
- EC50 (M), MOLM-13, Human T cell mediated killing [8]: 1.8e-10 M
- Kd [9]: 17 nM

B2: T017000351 (VHH, not shown: small tags and cut ends)
VHH: EVQLVESGGGVVQPGGSLRLSCVASGDVHKINFLGWYRQAPGKEREKVAHISIGDQTDYADSAKGRFTISRDESKNMVYLQMNSLRPEDTALYFCRAFSRIYPYDYWGQGTLVTVSS
notes: also called T0170000351
- EC50 [10]: 110 nM

B3: T017000681 (VHH)
VHH: DVQLVESGGGVVQPGGSLRLSCVASGYVHKINFYGWYRQAPGKEREKVAHISIGDQTDYADSAKGRFTISRDESKNTVYLQMNSLRPEDTATYYCRALSRIWPYDYWGQGTLVTVSS
- IC50 [11]: 92 nM
- IC50 [12]: 730 nM

B9: T0170056G05 (VHH)
VHH: EVQLVESGGGLVQPGGSLRLSCVASGDVHKINFLGWYRQAPGKEREKVAHISIGDQTDYADSAKGRFTISRDESKNMVYLQMNSLKPEDTAVYFCRAFSRIYPYDYWGQGTLVTVSS
notes: also called T01700056G05; parental ISVD
- EC50 [10]: 110 nM

B11: T017000131 (bispecific antibody)
chain: DVQLVESGGGLVQAGGSLRLSCAASGITSKINDMGWYRQTPGNYREWVASITATGTTNYRDSVKGRFTISRDNAKSTVYLQMNSLKPEDTTVYYCNTFPPISNFWGQGTLVTVSSGGGGSGGGGSGGGGSGGGGSGGGGSGGGGSGGGGSEVQLVESGGGLVQPGGSLRLSCVASGDVHKINFLGWYRQAPGKEREKVAHISIGDQTDYADSAKGRFTISRDESKNMVYLQMNSLKPEDTAVYFCRAFSRIYPYDYWGQGTLVTVSSA
notes: also called A0110056A10(E1D)-35GS-T0170056G05-A
- IC50 (M), xCELLigence CHO Flp-In huCD123 cell killing, Cynomolgus T cell mediated killing [1]: 8.1e-11 M
- IC50 (M), xCELLigence CHO Flp-In huCD123 cell killing, Human T cell mediated killing [2]: 3.4e-11 M
- % Lysis, T cell mediated MOLM-13 cell killing, cynomolgus primary T cells, E:T 10:1 [3]: 14%
- EC50 (M), T cell mediated MOLM-13 cell killing, cynomolgus primary T cells, E:T 10:1 [3]: 9e-10 M
- % Lysis, T cell mediated MOLM-13 cell killing, human primary T cells, E:T 10:1 [4]: 20%
- EC50 (M), T cell mediated MOLM-13 cell killing, human primary T cells, E:T 10:1 [4]: 1.3e-09 M
- % lysis, KG-1a, Cynomolgus T cell mediated killing [5]: 14%
- EC50 (M), KG-1a, Cynomolgus T cell mediated killing [5]: 1.6e-09 M
- % lysis, KG-1a, Human T cell mediated killing [6]: 29%
- EC50 (M), KG-1a, Human T cell mediated killing [6]: 2.4e-09 M
- % lysis, MOLM-13, Cynomolgus T cell mediated killing [7]: 14%
- EC50 (M), MOLM-13, Cynomolgus T cell mediated killing [7]: 8.9e-10 M
- % lysis, MOLM-13, Human T cell mediated killing [8]: 20%
- Kd [9]: 1600 nM

The next lines start with results.

- EC50 [10]: 160 nM
B4: T017000345 (VHH, not shown: small tags and cut ends)
VHH: EVQLVESGGGVVQPGGSLRLSCVASGDVHKINFLGWYRQAPGKEREKVAHISIGDQTDYADSAKGRFTISRDESKNMVYLQMNSLRPEDTALYYCRAFSRIYPYDYWGQGTLVTVSS

- IC50 [11]: 100 nM
- IC50 [12]: 620 nM
B5: T017000679 (VHH)
VHH: DVQLVESGGGVVQPGGSLRLSCVASGYVHKINFYGWYRQAPGKEREKVAHISIGDQTDYADSAKGRFTISRDESKNTVYLQMNSLRPEDTALYYCRALSRIWPYDYWGQGTLVTVSS

- Gap in off-rate human vs cyno [13]: 12.4 fold
- Kd [14]: 220 nM
- EC50 [15]: 100 nM
B6: T017000141 (VHH, not shown: small tags and cut ends)
VHH: EVQLVESGGGVVQPGGSLRLSCVASGDVHKINFLGWYRQAPGKEREKVAHISIGDQTDYADSAKGRFTISRDESKNMVYLQMNSLRPEDTALYFCRAFSRIYPYDYWGQGTLVTVSS

- Gap in off-rate human vs cyno [13]: 4.5 fold
- EC50 [16]: 45 nM
- Kd [14]: 6.3 nM
- EC50 [15]: 46 nM
B7: T017000624 (VHH, not shown: small tags and cut ends)
VHH: EVQLVESGGGVVQPGGSLRLSCVASGYVHKINFYGWYRQAPGKEREKVAHISIGDQTDYADSAKGRFTISRDESKNTVYLQMNSLRPEDTALYYCRALSRIWPYDYWGQGTLVTVSS

- koff [17]: 0.00399 s⁻¹
B8: T017000685 (VHH, not shown: small tags and cut ends)
VHH: EVQLVESGGGVVQPGGSLRLSCVASGEVHQINFYGWYRQAPGKEREKVAHISIGDQTDYADSAKGRFTISRDESKNTVYLQMNSLRPEDTALYYCRALSRIWPYDYWGQGTLVTVSS

- koff [17]: 0.00427 s⁻¹
B10: T017000687 (VHH, not shown: small tags and cut ends)
VHH: EVQLVESGGGVVQPGGSLRLSCVASGSVHQINFYGWYRQAPGKEREKVAHISIGDQTDYADSAKGRFTISRDESKNTVYLQMNSLRPEDTALYYCRALSRIWPYDYWGQGTLVTVSS

- Kd [9]: 200 nM
B12: T017000634 (bispecific antibody)
chain: DVQLVESGGGLVQAGGSLRLSCAASGITSKINDMGWYRQTPGNYREWVASITATGTTNYRDSVKGRFTISRDNAKSTVYLQMNSLKPEDTTVYYCNTFPPISNFWGQGTLVTVSSGGGGSGGGGSGGGGSGGGGSGGGGSGGGGSGGGGSEVQLVESGGGVVQPGGSLRLSCVASGYVHKINFYGWYRQAPGKEREKVAHISIGDQTDYADSAKGRFTISRDESKNTVYLQMNSLRPEDTALYYCRALSRIWPYDYWGQGTLVTVSSA
notes: also called A0110056A10(E1D)-35GS-T0170056G05(L11V, D27Y, L34Y, M77T, K83R, V89L, F91Y, F95L, Y99W)-A
- IC50 (M), xCELLigence CHO Flp-In huCD123 cell killing, Cynomolgus T cell mediated killing [1]: 1.9e-11 M
- IC50 (M), xCELLigence CHO Flp-In huCD123 cell killing, Human T cell mediated killing [2]: 1.1e-11 M
- % Lysis, T cell mediated MOLM-13 cell killing, cynomolgus primary T cells, E:T 10:1 [3]: 32%
- EC50 (M), T cell mediated MOLM-13 cell killing, cynomolgus primary T cells, E:T 10:1 [3]: 1.2e-10 M
- EC50 (M), T cell mediated MOLM-13 cell killing, human primary T cells, E:T 10:1 [4]: 1.4e-10 M
- % lysis, KG-1a, Cynomolgus T cell mediated killing [5]: 41%
- EC50 (M), KG-1a, Cynomolgus T cell mediated killing [5]: 2.7e-10 M
- % lysis, KG-1a, Human T cell mediated killing [6]: 49%
- EC50 (M), KG-1a, Human T cell mediated killing [6]: 4.4e-10 M
- % lysis, MOLM-13, Cynomolgus T cell mediated killing [7]: 33%
- EC50 (M), MOLM-13, Cynomolgus T cell mediated killing [7]: 2.1e-10 M
- % lysis, MOLM-13, Human T cell mediated killing [8]: 22%
- EC50 (M), MOLM-13, Human T cell mediated killing [8]: 2.5e-10 M
